What all share (assay): cell-based or functional assay
Assay [1] has as its target T1, recombinant human peroxiredoxin 6 (hPrdx6) (human, UniProt P30041 1-224, limits assumed).
T1 sequence (looked up): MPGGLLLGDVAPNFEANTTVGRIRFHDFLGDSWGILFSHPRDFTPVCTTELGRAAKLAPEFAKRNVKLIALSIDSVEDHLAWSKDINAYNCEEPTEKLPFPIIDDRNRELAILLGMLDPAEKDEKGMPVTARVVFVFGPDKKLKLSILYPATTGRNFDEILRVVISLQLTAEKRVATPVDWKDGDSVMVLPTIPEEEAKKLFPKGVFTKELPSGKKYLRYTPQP

The target in assay [2] is T1, recombinant human peroxiredoxin 6 …. The source holds these as a separate data set.
Assay [3] has the same target. The source holds these as a separate data set.

B1: PIP-3 (rat, mouse, 16-mer) DEELQTELYEIKHQIL (peptide)
peptide: DEELQTELYEIKHQIL
Turning to B1, in assay [1], the “aiPLA2 activity of recombinant hPrdx6 with peptide (hPrdx6 only, no peptide: 93.4)” value was 32 nmol/min/mg prot. The “aiPLA2 activity of human recombinant protein with peptide (hPrdx6 only: 92.0)” value (“aiPLA2 activity … (hPrdx6 only: 92.0)” for short) in assay [2] was found to be 32 nmol/min/mg prot.

B2: SEQ ID NO: 13 YEIKHQIL (8) (peptide)
peptide: YEIKHQIL
With B2, the “aiPLA2 activity of recombinant hPrdx6 with peptide (hPrdx6 only, no peptide: 93.4)” value in assay [1] was 94.4 nmol/min/mg prot.

B3: SN029 (row of SEQ ID NO: 31) LHDFRHIIL (peptide)
peptide: LHDFRHIIL
B3: the “aiPLA2 activity of human recombinant Prdx6 with peptide (no peptide, hPrdx6 only: 99.91)” value in assay [3] amounted to 97.3 nmol/min/mg prot.

B4: SN023 LFKLEHQIL (peptide)
peptide: LFKLEHQIL
With B4, in assay [3], the “aiPLA2 activity of human recombinant Prdx6 with peptide (no peptide, hPrdx6 only: 99.91)” value was 98 nmol/min/mg prot.

B5: PIP-5 LYDIRHQIL (peptide)
peptide: LYDIRHQIL
Regarding B5, in assay [3], the “aiPLA2 activity of human recombinant Prdx6 with peptide (no peptide, hPrdx6 only: 99.91)” value is 29.7 nmol/min/mg prot.

B6: PIP-1 (human, 16-mer) DEELQATLHDFRHQIL (peptide)
peptide: DEELQATLHDFRHQIL
B6: the “aiPLA2 activity of recombinant hPrdx6 with peptide (hPrdx6 only, no peptide: 93.4)” value in assay [1] was 45 nmol/min/mg prot.

B7: PIP-2 LHDFRHQIL (peptide)
peptide: LHDFRHQIL
As to B7, the “aiPLA2 activity … (hPrdx6 only: 92.0)” value in assay [2] was determined as 29.9 nmol/min/mg prot. Moreover, in assay [3], the “aiPLA2 activity of human recombinant Prdx6 with peptide (no peptide, hPrdx6 only: 99.91)” value stood at 26.2 nmol/min/mg prot.

B8: SN028 LHDFRHQLL (peptide)
peptide: LHDFRHQLL
As for B8, in assay [3], the “aiPLA2 activity of human recombinant Prdx6 with peptide (no peptide, hPrdx6 only: 99.91)” value amounted to 102 nmol/min/mg prot.

B9: PIP-4 LYEIKHQIL (peptide)
peptide: LYEIKHQIL
Regarding B9, in assay [2], the “aiPLA2 activity … (hPrdx6 only: 92.0)” value came to 32.3 nmol/min/mg prot.

B10: SEQ ID NO: 10 ELQTELYEIKHQIL (14) (peptide)
peptide: ELQTELYEIKHQIL
As for B10, the “aiPLA2 activity of recombinant hPrdx6 with peptide (hPrdx6 only, no peptide: 93.4)” value in assay [1] came out at 33.2 nmol/min/mg prot.

B11: SEQ ID NO: 15 … (14) (peptide)
peptide: DEELQTELYEIK
With B11, in assay [1], the “aiPLA2 activity of recombinant hPrdx6 with peptide (hPrdx6 only, no peptide: 93.4)” value is 102 nmol/min/mg prot.

B12: SN019 LKIEYHQIL (peptide)
peptide: LKIEYHQIL
As to B12, in assay [3], the “aiPLA2 activity of human recombinant Prdx6 with peptide (no peptide, hPrdx6 only: 99.91)” value was determined as 97.7 nmol/min/mg prot.

B13: SEQ ID NO: 19 … (10) (peptide)
peptide: TLHDFRHQI
As to B13, the “aiPLA2 activity … (hPrdx6 only: 92.0)” value in assay [2] was 31.5 nmol/min/mg prot.

B14: SN022 LHEFKHQIL (peptide)
peptide: LHEFKHQIL
With B14, the “aiPLA2 activity of human recombinant Prdx6 with peptide (no peptide, hPrdx6 only: 99.91)” value in assay [3] was found to be 99.4 nmol/min/mg prot.

B15: SEQ ID NO: 11 QTELYEIKHQIL (12) (peptide)
peptide: QTELYEIKHQIL
As for B15, in assay [1], the “aiPLA2 activity of recombinant hPrdx6 with peptide (hPrdx6 only, no peptide: 93.4)” value worked out at 31.5 nmol/min/mg prot.

B16: SEQ ID NO: 14 IKHQIL (6) (peptide)
peptide: IKHQIL
B16: in assay [1], the “aiPLA2 activity of recombinant hPrdx6 with peptide (hPrdx6 only, no peptide: 93.4)” value worked out at 97.1 nmol/min/mg prot.

B17: SN024 LHDFRDQIL (peptide)
peptide: LHDFRDQIL
For B17, in assay [3], the “aiPLA2 activity of human recombinant Prdx6 with peptide (no peptide, hPrdx6 only: 99.91)” value stood at 102 nmol/min/mg prot.

B18: SN020 LRFDHHQIL (peptide)
peptide: LRFDHHQIL
Turning to B18, the “aiPLA2 activity of human recombinant Prdx6 with peptide (no peptide, hPrdx6 only: 99.91)” value in assay [3] worked out at 99 nmol/min/mg prot.

B19: SEQ ID NO: 16 … (12) (peptide)
peptide: DEELQTELYEI
Take B19: the “aiPLA2 activity of recombinant hPrdx6 with peptide (hPrdx6 only, no peptide: 93.4)” value in assay [1] worked out at 95.7 nmol/min/mg prot.

B20: SN026 LHDFRHNIL (peptide)
peptide: LHDFRHNIL
Consider B20, for which, in assay [3], the “aiPLA2 activity of human recombinant Prdx6 with peptide (no peptide, hPrdx6 only: 99.91)” value came out at 99 nmol/min/mg prot.

B21: SN025 LHDFRPQIL (peptide)
peptide: LHDFRPQIL
Take B21: the “aiPLA2 activity of human recombinant Prdx6 with peptide (no peptide, hPrdx6 only: 99.91)” value in assay [3] worked out at 101 nmol/min/mg prot.

B22: SN029 (row of SEQ ID NO: 33) LHDFRHQTL (peptide)
peptide: LHDFRHQTL
As for B22, the “aiPLA2 activity of human recombinant Prdx6 with peptide (no peptide, hPrdx6 only: 99.91)” value in assay [3] turned out to be 100 nmol/min/mg prot.

B23: SEQ ID NO: 12 ELYEIKHQIL (10) (peptide)
peptide: ELYEIKHQIL
On to B23, for which the “aiPLA2 activity of recombinant hPrdx6 with peptide (hPrdx6 only, no peptide: 93.4)” value in assay [1] came to 28.6 nmol/min/mg prot.
